Measured values as given in patent US20160002357A1 (Pfizer, published 2016).
Residue numbers refer to the chain shown, from its start.

B1: 179 EK-DART (P-CAD 179 x CD3-2) (bispecific antibody)
chain 1: QSVLTQPPSVSAAPGQKVTISCSGSRSNIGNNYVSWYQQLPGTAPKLLIYDSNKRPSGIPDRFSGSKSGTSATLGITGLQTGDEADYYCGTWDSSLSSWVFGGGTKLTVLGGGSGGGGEVQLVESGGGLVQPGGSLRLSCAASGFTFNTYAMNWVRQAPGKGLEWVARIRSKYNNYATYYADSVKDRFTISRDDSKNSLYLQMNSLKTEDTAVYYCVRHGNFGNSYVSWFAYWGQGTLVTVSSGGCGGGKVAALKEKVAALKEKVAALKEKVAALKE
chain 2: QAVVTQEPSLTVSPGGTVTLTCRSSTGAVTTSNYANWVQQKPGQAPRGLIGGTNKRAPWTPARFSGSLLGGKAALTITGAQAEDEADYYCALWYSNLWVFGGGTKLTVLGGGGSGGGGEVQLVQSGAEVKKPGASVKVSCKASGYTFTSYGISWVRQAPGQGLEWMGWISAYNGNTNYAQKLQGRVTMTTDTSTSTAYMELRSLRSDDTAVYYCATIDTANAFDIWGQGTMVTVSSGGCGGGEVAALEKEVAALEKEVAALEKEVAALEK
B2: 177 EK-DART (P-CAD 177 x CD3-2) (bispecific antibody)
chain 1: B1 chain 1 with R26S, S52N, S98A, W99Y, G103T, L107V
chain 2: B1 chain 2
B3: 154 EK-DART (bispecific antibody)
chain 1: B1 chain 1 with R26S, S52N, W99Y, G103T, L107V
chain 2: B1 chain 2 with N221T
B4: 165 EK-DART (P-CAD 165 x CD3-2) (bispecific antibody)
chain 1: B1 chain 1 with R26S, S52N, T81A, S98A, W99Y, G103T, L107V
chain 2: B1 chain 2
B5: 180 EK-DART (P-CAD 180 x CD3-2) (bispecific antibody)
chain 1: B1 chain 1 with L4V, R26S, S52N, S98A, W99Y, G103T, L107V
chain 2: B1 chain 2
B6: 180 EK-DART (bispecific antibody)
chain 1: B1 chain 1 with L4V, R26S, S52N, S98A, W99Y, G103T, L107V
chain 2: B1 chain 2
notes: also called P-CAD 180 EK-DART (CD3-2)
B7: 178 EK-DART (bispecific antibody)
chain 1: B1 chain 1 with R26S, S52N, S98A, W99V
chain 2: B1 chain 2
B8: 179 EK-DART (bispecific antibody)
chain 1: B1 chain 1
chain 2: B1 chain 2
B9: 178 EK-DART (P-CAD 178 x CD3-2) (bispecific antibody)
chain 1: B1 chain 1 with R26S, S52N, S98A, W99V
chain 2: B1 chain 2
B10: 177 EK-DART (bispecific antibody)
chain 1: B1 chain 1 with R26S, S52N, S98A, W99Y, G103T, L107V
chain 2: B1 chain 2
notes: the K-coil chain is assembled from parts with CD3-2 VH
B11: 153 EK-DART (P-CAD 153 x CD3-2) (bispecific antibody)
chain 1: B1 chain 1 with R26S, S52N, S98G, W99V
chain 2: B1 chain 2 with D224G

Legend:
[1] = target: human P-cadherin, cell surface expressed (human, UniProt P22223 108-829); experiment: cell-based or functional assay
[2] = target: T1, cynomolgus monkey P-cadherin ECD (cynomolgus monkey); experiment: SPR Biacore
T1 construct: extracellular domain; also called cyno P-cadherin ECD; Cyno P-cadherin
Protocol: Binding affinity of EK-DART proteins to P-cadherin and CD3 was analyzed by SPR using a BIACORE® 3000 biosensor (GE Healthcare). The antigens huCD3εδ and either human P-cadherin-Fc or human/cynomolgus monkey/murine P-cadherin-ECD were immobilized on the CM-5 sensor chip by amine coupling kit as recommended by the manufacturer. […] All EK-DART proteins in Tables 15 and 16 comprise CD3-2.
All EK-DART proteins in Table 17 comprise CD3-2.

Sequence of human P-cadherin, cell surface expressed (P22223 108-829): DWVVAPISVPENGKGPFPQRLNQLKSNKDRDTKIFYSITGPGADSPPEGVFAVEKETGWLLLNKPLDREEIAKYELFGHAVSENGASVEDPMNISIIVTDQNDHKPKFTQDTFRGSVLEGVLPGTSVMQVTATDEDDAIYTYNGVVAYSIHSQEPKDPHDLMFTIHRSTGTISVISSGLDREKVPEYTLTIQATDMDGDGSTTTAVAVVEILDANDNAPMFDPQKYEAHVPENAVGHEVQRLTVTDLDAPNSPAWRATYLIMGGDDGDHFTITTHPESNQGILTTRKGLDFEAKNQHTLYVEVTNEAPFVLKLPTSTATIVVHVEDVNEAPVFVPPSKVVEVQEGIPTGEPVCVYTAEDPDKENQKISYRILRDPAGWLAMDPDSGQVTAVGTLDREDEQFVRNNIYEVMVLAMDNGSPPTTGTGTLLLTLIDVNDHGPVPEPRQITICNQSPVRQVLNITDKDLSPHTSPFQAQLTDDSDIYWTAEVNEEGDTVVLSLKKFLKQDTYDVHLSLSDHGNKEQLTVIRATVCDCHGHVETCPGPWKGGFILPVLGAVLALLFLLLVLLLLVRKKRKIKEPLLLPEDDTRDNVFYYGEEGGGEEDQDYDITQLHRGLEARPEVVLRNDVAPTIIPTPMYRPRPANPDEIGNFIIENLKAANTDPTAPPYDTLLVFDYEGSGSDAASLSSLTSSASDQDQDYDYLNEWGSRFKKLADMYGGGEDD

Row | Binder | T cell directed cytotoxicity EC50, H1650 LDH 24 hr 30:1 D41183 [1] [pM] | T cell directed cytotoxicity EC50, HCT116 Luc 48 hr 10:1 D43905 [1] [pM] | Kd [2] [pM] | koff [2] [s⁻¹] | kon [2] [M⁻¹ s⁻¹]
1 | B1 | 17.8 | 43.2 | – | – | –
2 | B2 | 1.1 | 0.7 | – | – | –
3 | B3 | – | – | 3930 | 0.0039 | 1.04e+06
4 | B4 | 1.1 | 1.5 | – | – | –
5 | B5 | 1.6 | 1.8 | – | – | –
6 | B6 | – | – | 966 | 0.000744 | 771000
7 | B7 | – | – | 1310 | 0.000216 | 167000
8 | B8 | – | – | 4160 | 0.00458 | 1.11e+06
9 | B9 | 0.8 | 1.8 | – | – | –
10 | B10 | – | – | 483 | 0.000383 | 802000
11 | B11 | 0.8 | 0.5 | – | – | –
